Reference: US11673947B2, “Target tissue-specific antigen-binding molecule” (Chugai Seiyaku Kabushiki Kaisha, priority 2012, dated 2023)

Test: Competitive phage ELISA, inhibition of binding to biotin-labeled antigens by ATP
Settings: ATP from an equal amount up to 10000 times that of the antigen
Description: ATNLSA1-4_D12 and PF1 were each diluted with TBS and subjected to ELISA by the following procedure.
A StreptaWell 96 microtiter plate (Roche) was coated at room temperature for one hour with 100 μl of TBS containing biotin-labeled antigens (a mixture of 5′-adenosine-PEG-biotin and ATP-PEG-biotin). After the antigens were removed by washing each well of the plate with TBST, the wells were blocked with 250 μl of 2% skim milk/TBS for one hour or more. 2% skim milk/TBS was removed, and then the prepared, purified phages were added to each well. The plate was allowed to stand at room temperature for one hour to allow binding of the antibody-displaying phages to the antigens in each well. […] For the competition of the immobilized antigen with ATP, the plate was allowed to stand at room temperature for one hour. Then, after TBST wash, an HRP-conjugated anti-M13 antibody (Amersham Pharmacia Biotech) diluted with TBS was added to each well. The plate was incubated for one hour. Following TBST wash, the TMB single solution (ZYMED) was added to each well. The chromogenic reaction in the solution of each well was terminated by adding sulfuric acid. Then, the developed color was assessed by measuring absorbance at 450 nm.

B1: PF1: IL-6R-binding clone prepared as a negative control; SEQ ID NOs: 48 and 49 (antibody, V domains shown)
VH: QVQLQESGPGLVKPSETLSLTCAVSGYSISDDHAWSWVRQPPGEGLEWIGYISYSGITNYNPSLKGRVTISRDTSKNQFSLKLSSVTAADTAAYYCARVLARITAMDYWGEGTLVTVSS
VL: DIQMTQSPSSLSASVGDSVTITCQASQDISSYLNWYQQKPGKAPELLIYYGSELHSGVPSRFSGSGSGTDFTFTISSLEAEDAATYYCGQGNRLPYTFGQGTKVEIE
- antigen binding (negative control): not detected regardless of the ATP concentration
